This note sets out measurements from publication PMC2621267, “The Influence of Catalysis on Mad2 Activation Dynamics” (PLoS Biology, 2009).

Common to all, as to conditions: both partners purified
In experiment [1] the target is T1, Alexa Fluor 488-labelled Mad2^F141A (UniProt Q13257 1-205, F141A, Alexa 488 C5 maleimide, covalent label (residue not stated)).
T1 construct: Mad2, full length, Phe141 replaced by Ala; monomeric O-Mad2 after labelling; Labelled form of m2; also called Alexa-Mad2^F141A; Alexa-488-Mad2^F141A; source: purified as described [14], labelled with Alexa 488 C5 maleimide, separated from free dye on Superdex-75
T1 sequence (Q13257 whole entry F141A): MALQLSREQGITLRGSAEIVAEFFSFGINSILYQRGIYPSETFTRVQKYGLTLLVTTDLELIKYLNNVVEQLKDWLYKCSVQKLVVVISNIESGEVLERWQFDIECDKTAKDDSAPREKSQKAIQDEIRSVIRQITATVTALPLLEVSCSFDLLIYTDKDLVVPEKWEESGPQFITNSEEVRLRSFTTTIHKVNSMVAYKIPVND
Kind of experiment: real-time confocal fluorescence in a flow chamber, signal in solution; same chamber with surface-held biotin-Cdc20 111-138; loss of Alexa-Mad2 fluorescence from solution followed; parameters of the curves laid over the data, [Cdc20T] = 0.9 uM.

For experiment [2], the target named is T1, Alexa Fluor 488-labelled Mad2^F141A. Kind of experiment: real-time confocal fluorescence on a surface in a flow chamber; biotin-Cdc20 111-138 (~1 uM) held on a neutravidin-coated chamber surface; Alexa-488-Mad2 injected at 1-8 uM in PBS; fluorescence on the surface followed; constants from a global fit of rate equations.
The target in the next experiment is T2, Full-length Mad2^wt (UniProt Q13257 1-205).
T2 construct: Mad2, wild type, full length; purified as a monomer in the open (O-Mad2) conformation; Unlabelled form; also called wild-type Mad2; O-Mad2; source: purified as described [14], final size-exclusion chromatography on Superdex-75 in PBS
T2 sequence (Q13257 whole entry): as the sequence (Q13257 whole entry F141A) above, with A141F counted along it
Kind of experiment: pull-down; GST-Cdc20 111-138 (1 uM) immobilised on GSH-agarose beads; 1 uM Mad2 for 24 h at room temperature, or 2 uM Mad2 as a time course; SDS-PAGE and densitometry.

The target in another experiment is T3, Full-length Mad2^F141A (UniProt Q13257 1-205, F141A).
T3 construct: Mad2, full length, Phe141 replaced by Ala; purified as a monomer in the open (O-Mad2) conformation; Unlabelled form; source: purified as described [14], final size-exclusion chromatography on Superdex-75 in PBS
T3 sequence (Q13257 whole entry F141A): as the sequence (Q13257 whole entry F141A) above
The experiment is described as above.

Ends that are not written are not given here. * marks the point of attachment. Biotin = O=C1N[C@H]2[C@H](CS[C@H]2CCCCC(=O)*)N1

B1: synthetic biotin-Cdc20^111-138 (peptide, UniProt Q12834 111-138, looked up)
peptide: Biotin-EHQKAWALNLNGFDVEEAKILRLSGKPQ
notes: Cdc20, residues 111-138; Held on the neutravidin-coated surface of the flow chamber through its biotin; also called biotinylated Cdc20 peptide; biotin-Cdc20 peptide^111-138; source: synthetic peptide
The term Kd denotes the concentration at which binding is half-saturated. Read a low Kd as higher affinity. One may read the kon as the second-order rate constant of association. Lower therefore signals slower complex formation. Broadly, the koff is a measure of how fast the partners let go of each other. Read a low koff as slow dissociation. As for B1, in experiment [1], binding was put at a Kd of 240 nM and the kon worked out at 27 M⁻¹ s⁻¹. In experiment [2], this molecule yielded a Kd of 100 nM, a koff of 4.83e-06 s⁻¹ and a kon of 48.3 M⁻¹ s⁻¹.
Consider EHQKAWALNLNGFDVEEAKILRLSGKPQ (domain or fragment, UniProt Q12834 111-138, looked up, Immobilised on GSH-agarose beads) [GST-Cdc20^111-138], for which the binding result in the experiment with Full-length Mad2^wt and with Full-length Mad2^F141A was “binds” throughout.
